Laboratory results from article PMC11005391, “Tetramerization is essential for the enzymatic function of the Pseudomonas aeruginosa virulence factor UDP-glucose pyrophosphorylase” (mBio, 2024).

Key:
[1] = molecular target: the molecule itself; assay: SEC; as a1, but the more diluted sample of mutants with dilution-dependent behaviour (footnote b of Table 1; broken lines in Fig. 5 and Fig. S9)
[2] = molecular target: the molecule itself; assay: cell-based or functional assay
[3] = molecular target: the molecule itself; assay: native gel or EMSA; blue native PAGE, uniform 12% polyacrylamide gel with 3.5% stacking gel, 13.5 ug of each protein loaded, Coomassie-stained bands
Q9I291 [4] = assay: SEC; as a1, but the more diluted sample of mutants with dilution-dependent behaviour (footnote b of Table 1; broken lines in Fig. 5 and Fig. S9)
Q9I291 [5] = assay: SEC; Superdex 200 10/300 GL, 50 mM Tris-HCl pH 8.0, 300 mM NaCl, 10 mM MgCl2; oligomeric state calculated from elution volumes of proteins of known size; addition of UTP, Glc-1-P or UDP-Glc did not affect the oligomerization of the WT
[6] = molecular target: the molecule itself; assay: as above
[7] = molecular target: the molecule itself; assay: as above; remark: listed apart in the source

| Protein | stoichiometry N [1] | In vitro activity (% of WT), EnzChek pyrophosphate assay, forward reaction [2] | stoichiometry N [3] | N of the monomer peak (minor peak) (Q9I291 [4]) | N of the monomer peak (minor peak) (Q9I291 [5]) | stoichiometry N [6] | stoichiometry N [7] | N of a minor peak [1] | N of the monomer peak (main peak) (Q9I291 [4]) |
| --- | --- | --- | --- | --- | --- | --- | --- | --- | --- |
| PaUGP R57A (enzyme, UDP-glucose pyrophosphorylase of Pseudomonas aeruginosa (galU), residues 1-279, point mutant of Strep-PaUGP; Same construct as m1; source: E. coli BL21(DE3), purified (Strep-Tactin Sepharose); not shown: Strep-tagII, N-terminal, kept) MIKKCLFPAAGYGTRFLPATKAMPKEMLPVVNKPLIQYAVEEALEAGLSEIGIVTGAGKRSLEDHFDISYELEHQIRNTDKEKYLVGIRRLIDECTFAYTRQVEMKGLGHAILTGRPLIGDEPFAVVLADDLCLNLEGDSVLKQMVKLYNQFRCSIVAIQEVPPEETNKYGVIAGEMIRDDIFRVNTMVEKPKPEEAPSNLAIIGRYILTPDIFDLIEQTEPGKGGEIQITDALMKQAQDGCVLAYKFKGKRFDCGSAEGYIEATNFCYENLYKTGKAH | 2.4 | 1.28 % of WT | 4 | 1.2 | – | – | – | – | – |
| PaUGP Y70F (enzyme, UDP-glucose pyrophosphorylase of Pseudomonas aeruginosa (galU), residues 1-279, point mutant of Strep-PaUGP; Same construct as m1; source: E. coli BL21(DE3), purified (Strep-Tactin Sepharose); not shown: Strep-tagII, N-terminal, kept) MIKKCLFPAAGYGTRFLPATKAMPKEMLPVVNKPLIQYAVEEALEAGLSEIGIVTGRGKRSLEDHFDISFELEHQIRNTDKEKYLVGIRRLIDECTFAYTRQVEMKGLGHAILTGRPLIGDEPFAVVLADDLCLNLEGDSVLKQMVKLYNQFRCSIVAIQEVPPEETNKYGVIAGEMIRDDIFRVNTMVEKPKPEEAPSNLAIIGRYILTPDIFDLIEQTEPGKGGEIQITDALMKQAQDGCVLAYKFKGKRFDCGSAEGYIEATNFCYENLYKTGKAH | – | 47.2 % of WT | 4 | – | 1.3 | 3.7 | – | – | – |
| PaUGP N266D (enzyme, UDP-glucose pyrophosphorylase of Pseudomonas aeruginosa (galU), residues 1-279, point mutant of Strep-PaUGP; Same construct as m1; source: E. coli BL21(DE3), purified (Strep-Tactin Sepharose); not shown: Strep-tagII, N-terminal, kept) MIKKCLFPAAGYGTRFLPATKAMPKEMLPVVNKPLIQYAVEEALEAGLSEIGIVTGRGKRSLEDHFDISYELEHQIRNTDKEKYLVGIRRLIDECTFAYTRQVEMKGLGHAILTGRPLIGDEPFAVVLADDLCLNLEGDSVLKQMVKLYNQFRCSIVAIQEVPPEETNKYGVIAGEMIRDDIFRVNTMVEKPKPEEAPSNLAIIGRYILTPDIFDLIEQTEPGKGGEIQITDALMKQAQDGCVLAYKFKGKRFDCGSAEGYIEATDFCYENLYKTGKAH | – | 105 % of WT | 4 | – | 1.2 | 4.2 | – | – | – |
| Pseudomonas aeruginosa uridine diphosphate-glucose pyrophosphorylase, wild type (Strep-PaUGP) (enzyme, UDP-glucose pyrophosphorylase (UGP, EC 2.7.7.9) of Pseudomonas aeruginosa, galU gene amplified from plasmid PaCD00006903; residues 1-279; no cleavage is reported; Crystallised with UDP-Glc and Mg2+; also called PaUGP WT; Strep-tagged PaUGP; source: E. coli BL21(DE3), purified (Strep-Tactin Sepharose); not shown: Strep-tagII, N-terminal, kept) MIKKCLFPAAGYGTRFLPATKAMPKEMLPVVNKPLIQYAVEEALEAGLSEIGIVTGRGKRSLEDHFDISYELEHQIRNTDKEKYLVGIRRLIDECTFAYTRQVEMKGLGHAILTGRPLIGDEPFAVVLADDLCLNLEGDSVLKQMVKLYNQFRCSIVAIQEVPPEETNKYGVIAGEMIRDDIFRVNTMVEKPKPEEAPSNLAIIGRYILTPDIFDLIEQTEPGKGGEIQITDALMKQAQDGCVLAYKFKGKRFDCGSAEGYIEATNFCYENLYKTGKAH | – | – | – | – | – | – | 4 | – | – |
| PaUGP R101A (enzyme, UDP-glucose pyrophosphorylase of Pseudomonas aeruginosa (galU), residues 1-279, point mutant of Strep-PaUGP; Same construct as m1; source: E. coli BL21(DE3), purified (Strep-Tactin Sepharose); not shown: Strep-tagII, N-terminal, kept) MIKKCLFPAAGYGTRFLPATKAMPKEMLPVVNKPLIQYAVEEALEAGLSEIGIVTGRGKRSLEDHFDISYELEHQIRNTDKEKYLVGIRRLIDECTFAYTAQVEMKGLGHAILTGRPLIGDEPFAVVLADDLCLNLEGDSVLKQMVKLYNQFRCSIVAIQEVPPEETNKYGVIAGEMIRDDIFRVNTMVEKPKPEEAPSNLAIIGRYILTPDIFDLIEQTEPGKGGEIQITDALMKQAQDGCVLAYKFKGKRFDCGSAEGYIEATNFCYENLYKTGKAH | 1.8 | 0.83 % of WT | – | 1.2 | – | – | – | 3.6 | – |
| PaUGP H74A (enzyme, UDP-glucose pyrophosphorylase of Pseudomonas aeruginosa (galU), residues 1-279, point mutant of Strep-PaUGP; Same construct as m1; source: E. coli BL21(DE3), purified (Strep-Tactin Sepharose); not shown: Strep-tagII, N-terminal, kept) MIKKCLFPAAGYGTRFLPATKAMPKEMLPVVNKPLIQYAVEEALEAGLSEIGIVTGRGKRSLEDHFDISYELEAQIRNTDKEKYLVGIRRLIDECTFAYTRQVEMKGLGHAILTGRPLIGDEPFAVVLADDLCLNLEGDSVLKQMVKLYNQFRCSIVAIQEVPPEETNKYGVIAGEMIRDDIFRVNTMVEKPKPEEAPSNLAIIGRYILTPDIFDLIEQTEPGKGGEIQITDALMKQAQDGCVLAYKFKGKRFDCGSAEGYIEATNFCYENLYKTGKAH | – | 60.3 % of WT | 4 | – | 1.3 | 3.7 | – | – | – |
| PaUGP R101K (enzyme, UDP-glucose pyrophosphorylase of Pseudomonas aeruginosa (galU), residues 1-279, point mutant of Strep-PaUGP; Same construct as m1; source: E. coli BL21(DE3), purified (Strep-Tactin Sepharose); not shown: Strep-tagII, N-terminal, kept) MIKKCLFPAAGYGTRFLPATKAMPKEMLPVVNKPLIQYAVEEALEAGLSEIGIVTGRGKRSLEDHFDISYELEHQIRNTDKEKYLVGIRRLIDECTFAYTKQVEMKGLGHAILTGRPLIGDEPFAVVLADDLCLNLEGDSVLKQMVKLYNQFRCSIVAIQEVPPEETNKYGVIAGEMIRDDIFRVNTMVEKPKPEEAPSNLAIIGRYILTPDIFDLIEQTEPGKGGEIQITDALMKQAQDGCVLAYKFKGKRFDCGSAEGYIEATNFCYENLYKTGKAH | 2.1 | 1.31 % of WT | – | 1.2 | – | – | – | – | – |
| PaUGP K21A (enzyme, UDP-glucose pyrophosphorylase of Pseudomonas aeruginosa (galU), residues 1-279, point mutant of Strep-PaUGP; source: E. coli BL21(DE3), purified (Strep-Tactin Sepharose); not shown: Strep-tagII, N-terminal, kept) MIKKCLFPAAGYGTRFLPATAAMPKEMLPVVNKPLIQYAVEEALEAGLSEIGIVTGRGKRSLEDHFDISYELEHQIRNTDKEKYLVGIRRLIDECTFAYTRQVEMKGLGHAILTGRPLIGDEPFAVVLADDLCLNLEGDSVLKQMVKLYNQFRCSIVAIQEVPPEETNKYGVIAGEMIRDDIFRVNTMVEKPKPEEAPSNLAIIGRYILTPDIFDLIEQTEPGKGGEIQITDALMKQAQDGCVLAYKFKGKRFDCGSAEGYIEATNFCYENLYKTGKAH | – | 5 % of WT | – | – | – | – | – | 2.3 | 1.2 |
| PaUGP R57K (enzyme, UDP-glucose pyrophosphorylase of Pseudomonas aeruginosa (galU), residues 1-279, point mutant of Strep-PaUGP; Same construct as m1; source: E. coli BL21(DE3), purified (Strep-Tactin Sepharose); not shown: Strep-tagII, N-terminal, kept) MIKKCLFPAAGYGTRFLPATKAMPKEMLPVVNKPLIQYAVEEALEAGLSEIGIVTGKGKRSLEDHFDISYELEHQIRNTDKEKYLVGIRRLIDECTFAYTRQVEMKGLGHAILTGRPLIGDEPFAVVLADDLCLNLEGDSVLKQMVKLYNQFRCSIVAIQEVPPEETNKYGVIAGEMIRDDIFRVNTMVEKPKPEEAPSNLAIIGRYILTPDIFDLIEQTEPGKGGEIQITDALMKQAQDGCVLAYKFKGKRFDCGSAEGYIEATNFCYENLYKTGKAH | 3.2 | 2.36 % of WT | 4 | 1.2 | – | – | – | – | – |
| PaUGP K21Q (enzyme, UDP-glucose pyrophosphorylase of Pseudomonas aeruginosa (galU), residues 1-279, point mutant of Strep-PaUGP; Same construct as m1; source: E. coli BL21(DE3), purified (Strep-Tactin Sepharose); not shown: Strep-tagII, N-terminal, kept) MIKKCLFPAAGYGTRFLPATQAMPKEMLPVVNKPLIQYAVEEALEAGLSEIGIVTGRGKRSLEDHFDISYELEHQIRNTDKEKYLVGIRRLIDECTFAYTRQVEMKGLGHAILTGRPLIGDEPFAVVLADDLCLNLEGDSVLKQMVKLYNQFRCSIVAIQEVPPEETNKYGVIAGEMIRDDIFRVNTMVEKPKPEEAPSNLAIIGRYILTPDIFDLIEQTEPGKGGEIQITDALMKQAQDGCVLAYKFKGKRFDCGSAEGYIEATNFCYENLYKTGKAH | – | 1.26 % of WT | – | – | – | – | – | 2.7 | 1.4 |
